The text below walks through data of patent publication US20260275311, “CRISPR NUCLEASE POLYPEPTIDES AND GENE EDITING SYSTEMS COMPRISING SUCH” (ARBOR BIOTECHNOLOGIES, INC., published 2026).

Common to all, as to assay: cell_activity
Common to all, as to settings: PAM TTAAA; HEK293T

In one data set the test system is T1, Nuclease M S95R S95R.
T1 sequence: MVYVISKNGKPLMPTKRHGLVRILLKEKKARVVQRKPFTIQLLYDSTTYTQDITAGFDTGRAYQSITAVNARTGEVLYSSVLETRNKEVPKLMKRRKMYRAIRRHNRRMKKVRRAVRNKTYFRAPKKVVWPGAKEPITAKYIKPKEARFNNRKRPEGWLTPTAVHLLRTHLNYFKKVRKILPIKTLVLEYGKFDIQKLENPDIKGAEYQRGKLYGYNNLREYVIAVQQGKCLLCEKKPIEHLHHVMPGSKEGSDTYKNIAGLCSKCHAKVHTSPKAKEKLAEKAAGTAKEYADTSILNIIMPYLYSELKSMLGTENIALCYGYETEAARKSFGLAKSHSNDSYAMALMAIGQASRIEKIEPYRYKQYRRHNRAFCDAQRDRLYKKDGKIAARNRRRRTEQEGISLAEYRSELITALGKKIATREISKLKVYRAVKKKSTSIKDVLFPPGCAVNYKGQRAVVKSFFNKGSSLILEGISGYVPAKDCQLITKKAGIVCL

In a further data set the test system is T2, Nuclease M E88R E88R.
T2 sequence: T1 sequence with E88R, R95S

For another data set, the system named is T3, Nuclease M E83R E83R.
T3 sequence: T1 sequence with E83R, R95S

The subject of the next data set is T4, Nuclease M N371R N371R.
T4 sequence: T1 sequence with R95S, N371R

The subject of the next data set is T5, Nuclease M L92R L92R.
T5 sequence: T1 sequence with L92R, R95S

The next data set has as its system T6, Nuclease M A373R A373R.
T6 sequence: T1 sequence with R95S, A373R

Substitutions are numbered along the chain they refer to.

As to “GAGCCUGGUCCAUGGAGAGUGUCAACUACCCCCGUCUAAAGACGGAGGCAUGAGGUUUCGUAACCAAGUGUUGUACCUGCGGGUACAGUAGUUGAACAGGCGGCGAUGCGGCUGGGCACUCCAGGAUGCCACUCCCAGUCCCGGACACUGCCGACGAGCCGCAUCAAGCCGGGGGAGACCAACCGGCUAACGAUAGCCGAGCAAUUACCUAAAAAGAGGUGCAAAGGAAAUGGUAU / GAGCCTGGTCCATGGAGAGT / ACTCTCCATGGACCAGGCTC [Nuclease M VEGFA-T5 guide ; Nuclease M VEGFA-T5 target]”, the binding signal (fold vs Nuclease M) in the data set on Nuclease M S95R S95R was found to be 2.05; in the data set on Nuclease M E88R E88R, 2.09; in the data set on Nuclease M E83R E83R, 1.71; in the data set with Nuclease M N371R N371R, 1.65; in the data set on Nuclease M L92R L92R, 1.81; with Nuclease M A373R A373R it was 1.53.
